Data published in IntAct's records for PubMed 22835334.

B1: Huntingtin-interacting protein 1 (Homo sapiens), O00291 (parent)
chain: MDRMASSMKQVPNPLPKVLSRRGVGAGLEAAERESFERTQTVSINKAINTQEVAVKEKHARTCILGTHHEKGAQTFWSVVNRLPLSSNAVLCWKFCHVFHKLLRDGHPNVLKDSLRYRNELSDMSRMWGHLSEGYGQLCSIYLKLLRTKMEYHTKNPRFPGNLQMSDRQLDEAGESDVNNFFQLTVEMFDYLECELNLFQTVFNSLDMSRSVSVTAAGQCRLAPLIQVILDCSHLYDYTVKLLFKLHSCLPADTLQGHRDRFMEQFTKLKDLFYRSSNLQYFKRLIQIPQLPENPPNFLRASALSEHISPVVVIPAEASSPDSEPVLEKDDLMDMDASQQNLFDNKFDDIFGSSFSSDPFNFNSQNGVNKDEKDHLIERLYREISGLKAQLENMKTESQRVVLQLKGHVSELEADLAEQQHLRQQAADDCEFLRAELDELRRQREDTEKAQRSLSEIERKAQANEQRYSKLKEKYSELVQNHADLLRKNAEVTKQVSMARQAQVDLEREKKELEDSLERISDQGQRKTQEQLEVLESLKQELATSQRELQVLQGSLETSAQSEANWAAEFAELEKERDSLVSGAAHREEELSALRKELQDTQLKLASTEESMCQLAKDQRKMLLVGSRKAAEQVIQDALNQLEEPPLISCAGSADHLLSTVTSISSCIEQLEKSWSQYLACPEDISGLLHSITLLAHLTSDAIAHGATTCLRAPPEPADSLTEACKQYGRETLAYLASLEEEGSLENADSTAMRNCLSKIKAIGEELLPRGLDIKQEELGDLVDKEMAATSAAIETATARIEEMLSKSRAGDTGVKLEVNERILGCCTSLMQAIQVLIVASKDLQREIVESGRGTASPKEFYAKNSRWTEGLISASKAVGWGATVMVDAADLVVQGRGKFEELMVCSHEIAASTAQLVAASKVKADKDSPNLAQLQQASRGVNQATAGVVASTISGKSQIEETDNMDFSSMTLTQIKRQEMDSQVRVLELENELQKERQKLGELRKKHYELAGVAEGWEEGTEASPPTLQEVVTEKE

Variants of: B1
Conditions: with hd_human HTT

effect of a mutation on the interaction | Variant
increasing interaction | K510L
increasing interaction | T528L
